Measurements: PMC6266874

Legend:
Experiment in all cases: GST-WRKY pull-down of BIK1-HA from leaf extract
Settings in all cases: reference: wild type BIK1; sites S89,T90
WRKY57 = WRKY57 (UniProt Q9C983)
WRKY33 = WRKY33 (UniProt Q8S8P5)
WRKY50 = WRKY50 (UniProt Q8VWQ5)

Measured: binding against the reference

BIK1 (Botrytis-induced kinase 1) (from UniProt O48814) S89A/T90A
stronger: all assays above
